Results as given in paper PMC11592359.

Tests used:
[1] = biological target: LZ-mDio3^cat: leucine zipper of A. thaliana Hy5 (residues 112-150) fused N-terminally to mouse Dio3 78-304 Sec170Cys (A. thaliana | Mus musculus); test: native gel or EMSA; Blue Native PAGE, 5% stacking and 12.5% resolving gel, 4 °C; samples from the monomer and the dimer SEC peaks; catalase, BSA and chicken egg albumin as size markers
[2] = biological target: LZ-mDio3^cat: leucine zipper of A. thaliana Hy5 (residues 112-150) fused N-terminally to mouse Dio3 78-304 Sec170Cys (A. thaliana | Mus musculus); test: SEC; size exclusion chromatography of the purified recombinant protein (final purification step); 20 mM Tris/HCl pH 7.5/7.8, 200 mM NaCl, 1 mM TCEP; compared with molecular weight standards
[3] = biological target: mouse iodothyronine deiodinase 2 catalytic domain, residues 71-262 (Sec130Cys) (Mus musculus) (UniProt Q9Z1Y9); test: native gel or EMSA; Blue Native PAGE, 5% stacking and 12.5% resolving gel, 4 °C; samples from the monomer and the dimer SEC peaks; catalase, BSA and chicken egg albumin as size markers
[4] = biological target: mouse iodothyronine deiodinase 2 catalytic domain, residues 71-262 (Sec130Cys) (Mus musculus) (UniProt Q9Z1Y9); test: SEC-MALS; SEC with multi angle light scattering of the two species of Dio2-71-262 (Supplementary Figure S3A)
[5] = biological target: mouse iodothyronine deiodinase 2 catalytic domain, residues 71-262 (Sec130Cys) (Mus musculus) (UniProt Q9Z1Y9); test: SEC; size exclusion chromatography of the purified recombinant protein (final purification step); 20 mM Tris/HCl pH 7.5/7.8, 200 mM NaCl, 1 mM TCEP; compared with molecular weight standards
[6] = biological target: mouse iodothyronine deiodinase 2, residues 49-262 (Mus musculus) (UniProt Q9Z1Y9); test: not stated; size analysis of the recombinantly produced construct (Supplementary Figure S3C)

LZ-mDio3^cat: leucine zipper of A. thaliana Hy5 (residues 112-150) fused N-terminally to mouse Dio3 78-304 Sec170Cys (from UniProt O24646 112-150; Q91ZI8 78-304)
stoichiometry N [1]: 2
stoichiometry N [2]: 2

mouse iodothyronine deiodinase 2 catalytic domain, residues 71-262 (Sec130Cys) (from UniProt Q9Z1Y9 71-262) (domain or fragment)
stoichiometry N [3]: 2
stoichiometry N [4]: 2
stoichiometry N [5]: 2

mouse iodothyronine deiodinase 2, residues 49-262 (from UniProt Q9Z1Y9 49-262) (domain or fragment)
stoichiometry N [6]: 2
